# Patent US20070036786A1 (published 2007)
# Changes are numbered by the printed parent chain.
# B1: chimeric 3G8 antibody (ch3G8VH/ch3G8VL) (antibody, V domains shown)
# VH: QVTLKESGPGILQPSQTLSLTCSFSGFSLRTSGMGVGWIRQPSGKGLEWLAHIWWDDDKRYNPALKSRLTISKDTSSNQVFLKIASVDTADTATYYCAQINPAWFAYWGQGTLVTVSS
# VL: DTVLTQSPASLAVSLGQRATISCKASQSVDFDGDSFMNWYQQKPGQPPKLLIYTTSNLESGIPARFSASGSGTDFTLNIHPVEEEDTATYYCQQSNEDPYTFGGGTKLEIK
# notes: Mouse 3G8 variable domains (VH FR4 ala to ser) on human Cγ1 and Cκ constant regions; also called ch3G8-γ1
# B2: hu3G8VH-25/hu3G8VL-1 (antibody)
# VH: QVTLRESGPALVKPTQTLTLTCTFSGFSLSTSGVGVGWIRQPPGKALEWLAHIWWDDDKRYSPSLKSRLTISKDTSKNQVVLTMTNMDPVDTATYYCAHINPAYFAYWGQGTLVTVSS
# light: DIVMTQSPDSLAVSLGERATINCKASQSVDFDGDSFMNWYQQKPGQPPKLLIYTTSNLESGVPDRFSGSGSGTDFTLTISSLQAEDVAVYYCQQSNEDPYTFGQGTKLEIKRTVAAPSVFIFPPSDEQLKSGTASVVCLLNNFYPREAKVQWKVDNALQSGNSQESVTEQDSKDSTYSLSSTLTLSKADYEKHKVYACEVTHQGLSSPVTKSFNRGEC
# notes: VH fused to human Cγ1 constant region
# B3: hu3G8VH-22/hu3G8VL-1 (antibody)
# VH: QVTLRESGPALVKPTQTLTLTCTFSGFSLSTSGVGVGWIRQPPGKALEWLAHIWWDDDKRYSPSLKSRLTISKDTSKNQVVLTMTNMDPVDTATYYCARINPAYFAYWGQGTLVTVS
# light: B2 light
# notes: VH fused to human Cγ1 constant region (glycosylated form)
# B4: hu3G8VH-36/hu3G8VL-1 (antibody)
# VH: B2 VH with V2I, R5K, A10T, H52L, H99Q, A106D
# light: B2 light
# notes: as for B2
# B5: hu3G8VH-35/hu3G8VL-1 (antibody)
# VH: B2 VH with V2I, R5K, A10T, H99Q
# light: B2 light
# notes: as for B2
# B6: hu3G8VH-31/hu3G8VL-1 (antibody)
# VH: B2 VH with V2I, R5K, A10T, H99R, Y104W
# light: B2 light
# notes: as for B2
# B7: hu3G8VH-26/hu3G8VL-1 (antibody)
# VH: B2 VH with H99Q
# light: B2 light
# notes: as for B2
# B8: hu3G8VH-44/hu3G8VL-1 (antibody)
# VH: B2 VH with V2I, R5K, A10T, S72T, A106D
# light: B2 light
# notes: as for B2
# B9: hu3G8VH-30/hu3G8VL-1 (antibody)
# VH: B2 VH with H99Q, A106D
# light: B2 light
# notes: as for B2
# B10: hu3G8VH-43/hu3G8VL-1 (antibody)
# VH: B2 VH with V2I, R5K, A10T, S72T, H99R
# light: B2 light
# notes: as for B2
# B11: hu3G8VH-42/hu3G8VL-1 (antibody)
# VH: B2 VH with V2I, R5K, A10T, S72T, H99R, Y104W
# light: B2 light
# notes: as for B2
# B12: hu3G8VH-29/hu3G8VL-1 (antibody)
# VH: B2 VH with A106D
# light: B2 light
# notes: as for B2
# B13: hu3G8VH-28/hu3G8VL-1 (antibody)
# VH: B2 VH with H99A, A106D
# light: B2 light
# notes: as for B2
# B14: hu3G8VH-45/hu3G8VL-1 (antibody)
# VH: B2 VH with V2I, R5K, A10T, S72T, H99Q, A106D
# light: B2 light
# notes: as for B2
# B15: hu3G8VH-37/hu3G8VL-1 (antibody)
# VH: B2 VH with V2I, R5K, A10T, H52L, H99K
# light: B2 light
# notes: as for B2
# B16: hu3G8VH-40/hu3G8VL-1 (antibody)
# VH: B2 VH with V2I, R5K, A10T, W54F, H99R, Y104W
# light: B2 light
# notes: as for B2
# B17: hu3G8VH-34/hu3G8VL-1 (antibody)
# VH: B2 VH with V2I, R5K, A10T, H99R
# light: B2 light
# notes: as for B2
# B18: hu3G8VH-27/hu3G8VL-1 (antibody)
# VH: B2 VH with H99K, A106D
# light: B2 light
# notes: as for B2
# Biological target: T1, soluble human CD16A (sCD16A) (human, UniProt P08637 17-203)
# T1 construct: CD16A truncated just prior to the transmembrane region, expressed in HEK-293; The last seven residues come from vector pCDNA3.1; also called soluble form of human CD16A
# Assay: ELISA, captured sCD16A
# Method: The plate was washed and dilutions of recombinant antibodies starting at 0.5 μg/ml in PBS-T-BSA were then added and incubated for 1 hr at room temp. Binding of recombinant antibodies to the captured sCD16A was then measured using an anti-human IgG-HRP conjugate and TMB substrate. After stopping color development using dilute sulfuric acid, the plate was read at 450 nm.
# T1 sequence (P08637 other isoform, or with tags, fused parts or gaps limits assumed): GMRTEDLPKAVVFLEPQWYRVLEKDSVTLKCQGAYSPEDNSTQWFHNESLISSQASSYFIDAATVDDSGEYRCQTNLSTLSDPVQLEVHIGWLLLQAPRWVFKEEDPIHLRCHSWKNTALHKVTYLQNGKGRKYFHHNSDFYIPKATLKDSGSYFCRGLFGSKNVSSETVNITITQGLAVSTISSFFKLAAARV
row,binding result,Binder
1,binds,B1
2,binds,B2
3,binds,B3
4,binds,B4
5,binds,B5
6,binds,B6
7,binds,B7
8,binds,B8
9,binds,B9
10,binds,B10
11,binds,B11
12,binds,B12
13,binds,B13
14,binds,B14
15,binds,B15
16,binds,B16
17,binds,B17
18,binds,B18
